From the supplement of paper PMC10724198
± gives the standard deviation of the averaged measurements.

Test system: Saccharomyces cerevisiae
Assay: protein stability index of tFT-peptide fusion (C-terminal peptide) (PSI (0-1 scale)); higher = more stable (slower turnover)
Conditions: genetic background: wild type; temperature: 30 C
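Also: PSI is a weighted mean of sequencing reads over stability bins, variants kept only with over 10 reads, mCherry proximal and sfGFP distal, peptide attached via GGGS linker.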

Sequence | protein stability index
LGVPKDALKMMS | 0.685 ± 0.0078
LGVPPVLLLASS | 0.506 ± 0.0077
LGWLCWQFFGGT | 0.795 ± 0.14
LGWVGGGGGWGC | 0.704 ± 0.03
LGYGERAGVGKR | 0.6954 ± 0.0049
LHCRFDCTPFPY | 0.67 ± 0.012
LHGRTLENIVVR | 0.6481 ± 0.0044
LHHGMVDDCIKK | 0.70112 ± 0.00044
LHPCATITELTS | 0.652 ± 0.026
LHPPPLPQAPPT | 0.684 ± 0.09
LHRCRPPCSIHL | 0.816 ± 0.036
LHRGCSGNVPAR | 0.697 ± 0.037
LHSPPLPFTPSP | 0.613 ± 0.041
LIAACSFPRSSI | 0.716 ± 0.067
LIFDISDLVWYI | 0.636 ± 0.031
LIGMCEAGCSPF | 0.727 ± 0.012
LILHVGWDSQLG | 0.667 ± 0.085
LISSPKIHLRTY | 0.742 ± 0.14
LISSVRLACGVS | 0.554 ± 0.061
LIVPGGLSVFGG | 0.676 ± 0.082
LKKEKDHKNRNR | 0.67 ± 0.016
LKNFGRGAMVRT | 0.688 ± 0.013
LKSSREKRDMIG | 0.578 ± 0.019
LLAEPASSRFRP | 0.722 ± 0.029
LLAFRVSRYFCD | 0.87 ± 0.06
LLALHPLRSWPP | 0.665 ± 0.016

Sequence | protein stability index
LLALSPLSSYAL | 0.711 ± 0.084
LLALVLTYLLYG | 0.564 ± 0.03
LLDGGGGGVGEG | 0.765 ± 0.011
LLDGRNVPRFRK | 0.792 ± 0.042
LLFFFTWCLCCF | 0.569 ± 0.028
LLFRSLASMEFP | 0.6934 ± 0.0062
LLGWRFFYLGVG | 0.688 ± 0.051
LLHHPPPPPSQP | 0.769 ± 0.011
LLHPLPPPSYPP | 0.689 ± 0.01
LLHRALLFPAVM | 0.734 ± 0.017
LLIFFFSSSCPL | 0.5359 ± 0.0025
LLIYALPQGTHL | 0.68 ± 0.048
LLKLSVPPSLYV | 0.5722 ± 0.0011
LLLARDLAHPLI | 0.705 ± 0.015
LLLFSILPFCLF | 0.53 ± 0.073
LLLLPPPPPPPT | 0.684 ± 0.046
LLLTVMSSPSLL | 0.645 ± 0.027
LLNCVCSYFAWC | 0.637 ± 0.014
LLNNTLENQNTL | 0.6645 ± 0.0041
LLNTSPPRSVLH | 0.653 ± 0.01
LLPFHPPPPCPP | 0.733 ± 0.033
LLPFIPPPPCPP | 0.658 ± 0.02
LLPLGSLSLSPP | 0.7257 ± 0.0024
LLPLPSFSPCSL | 0.7013 ± 0.0034
LLPLVLHQAFSP | 0.729 ± 0.073
LLPPPPPASPAI | 0.696 ± 0.01

Sequence | protein stability index
LLPPSPSSRPLF | 0.723 ± 0.02
LLPPTSRLPRLG | 0.702 ± 0.12
LLPSPLPPLLRL | 0.6494 ± 0.0018
LLQFYWRPCRGY | 0.699 ± 0.013
LLQSPRLGQEWA | 0.6928 ± 0.0028
LLSCFGFLRVGA | 0.6076 ± 0.0049
LLSHLPLPSSPP | 0.737 ± 0.096
LLSPAPRSPRRP | 0.725 ± 0.019
LLSPPFPPPAMV | 0.6948 ± 0.0017
LLSPPPAPRPPH | 0.696 ± 0.067
LLSSSLPVCLWS | 0.733 ± 0.048
LLSVPSLFCQFF | 0.683 ± 0.057
LLTAFQACPASN | 0.713 ± 0.04
LLVCVVDREPPI | 0.685 ± 0.019
LMGFVASGGDDM | 0.786 ± 0.1
LNDYGLADLGII | 0.731 ± 0.0076
LNEGSDRTKNKK | 0.709 ± 0.065
LNHTRKDSLLTC | 0.667 ± 0.014
LNPPPPPDPPPT | 0.585 ± 0.048
LNSSGPGYGFPG | 0.743 ± 0.05
LNWMVMLGHGAC | 0.5729 ± 0.0014
LPAFHFHSPPTP | 0.688 ± 0.037
LPAPARPPLVCS | 0.605 ± 0.048
LPAPPTPRPAPP | 0.706 ± 0.016
LPFPSCYLRASL | 0.779 ± 0.033
LPFSPLSLLAHP | 0.782 ± 0.044

Sequence | protein stability index
LPGCPPADRPLV | 0.688 ± 0.13
LPHLSPPPLAQL | 0.686 ± 0.033
LPHSPHRAAYPN | 0.8 ± 0.013
LPHYLAFPFFMI | 0.499 ± 0.08
LPIARLPPPPPR | 0.707 ± 0.1
LPITTPLPPLDP | 0.688 ± 0.02
LPLALLSPPFGS | 0.707 ± 0.022
LPLHAPPPHRHP | 0.683 ± 0.013
LPLPHPQPTPYP | 0.756 ± 0.046
LPLPPLPPPSCP | 0.718 ± 0.032
LPLSRPPLPPPL | 0.786 ± 0.031
LPNLGWTNSSIE | 0.667 ± 0.066
LPNPTSPSPQAA | 0.693 ± 0.025
LPPALAPLPPPL | 0.572 ± 0.021
LPPCGQIVSLDT | 0.68 ± 0.022
LPPLAPSSPPRP | 0.696 ± 0.033
LPPLLGPSPCPP | 0.604 ± 0.015
LPPLLLPTRPLS | 0.662 ± 0.12
LPPLPPLAHHPA | 0.699 ± 0.044
LPPPLPLPSRHY | 0.671 ± 0.06
LPPPLSSPSSLR | 0.7153 ± 0.0071
LPPPPLSPPSLV | 0.734 ± 0.0078
LPPPPPAFLDSF | 0.691 ± 0.065
LPPPPPPLPHPP | 0.597 ± 0.083
LPPPPRPALSHR | 0.72 ± 0.089
LPPPRSPPLPRL | 0.802 ± 0.059

Sequence | protein stability index
LPPPSPPPIPSP | 0.688 ± 0.06
LPPPVFPLRLSL | 0.703 ± 0.027
LPPRPGFLSSLP | 0.64 ± 0.082
LPPRSPSPHPHR | 0.68 ± 0.0078
LPPSPLPPLPPP | 0.6942 ± 0.0012
LPPSRSPPPFPL | 0.728 ± 0.048
LPPSSCPPPPTP | 0.702 ± 0.068
LPPSSFPTPSPP | 0.723 ± 0.08
LPPSTYPASTPS | 0.674 ± 0.054
LPPVPRAYFSDT | 0.714 ± 0.061
LPRHKWLPSGLG | 0.686 ± 0.056
LPRPPPPSPPPP | 0.7 ± 0.042
LPRTALHSPSPY | 0.723 ± 0.082
LPRTPPPLAHGP | 0.688 ± 0.041
LPSGLTSPPRSS | 0.712 ± 0.031
LPSHPHDRPPQT | 0.719 ± 0.019
LPSLDSVCLLFP | 0.685 ± 0.026
LPSLLIHLVSQT | 0.668 ± 0.02
LPSPALSRSDPT | 0.729 ± 0.031
LPSPPRHPSAPR | 0.683 ± 0.022
LPSPRIPLTSQS | 0.638 ± 0.031
LPSPSYPAPVPN | 0.65 ± 0.074
LPTPSLPPLPFH | 0.623 ± 0.058
LPTSPQLPHAPS | 0.7192 ± 0.0046
LPTSSTRVEFSV | 0.638 ± 0.045
LPVPLYPTPALL | 0.666 ± 0.14

Sequence | protein stability index
LPVPPPPPLPET | 0.702 ± 0.061
LPYAMPGFHSTR | 0.701 ± 0.037
LQASRHPASPST | 0.701 ± 0.048
LQCCVAVTNYCV | 0.54 ± 0.016
LQCRAEFQRARC | 0.666 ± 0.031
LQFAQLLDISIT | 0.696 ± 0.062
LQKNKIPTKKKD | 0.647 ± 0.0097
LRARLTGRFIVG | 0.669 ± 0.013
LRAWAAPPPHGL | 0.727 ± 0.076
LRCFLESPRQST | 0.724 ± 0.071
LRESPPHLPFPP | 0.701 ± 0.039
LRFGEGILLDWG | 0.723 ± 0.043
LRFRCGNSRILS | 0.724 ± 0.044
LRGAWRISIEGG | 0.666 ± 0.036
LRGEGAGPEDVG | 0.67 ± 0.029
LRGTEMMSTSVV | 0.656 ± 0.085
LRGVDSALCGAR | 0.693 ± 0.082
LRHLPRDVPSYI | 0.7049 ± 0.0046
LRLSASRLLPPP | 0.736 ± 0.015
LRLSSYRAPRPR | 0.649 ± 0.032
LRPCSSLPSTPP | 0.718 ± 0.049
LRPCVSHLHLQN | 0.677 ± 0.18
LRPGRSKHSSQA | 0.721 ± 0.044
LRQVGTASSLRR | 0.717 ± 0.045
LRREQIKEAKHR | 0.66 ± 0.017
LRRNHREPGYSK | 0.684 ± 0.024

Sequence | protein stability index
LRRPSPPAPPPP | 0.718 ± 0.11
LRSAPTLFTRPY | 0.677 ± 0.0091
LRSAYGHCLQKI | 0.715 ± 0.14
LRSCLARGLFFG | 0.7426 ± 0.0066
LRSLRFALFPPA | 0.642 ± 0.083
LRVQASALHVLQ | 0.667 ± 0.021
LRVQFFFLAGCT | 0.584 ± 0.006
LRYGSDQMERFI | 0.717 ± 0.1
LSAMVSYTRAPF | 0.67811 ± 0.00065
LSARAKRTVTFL | 0.593 ± 0.043
LSASHVMSLTNL | 0.698 ± 0.028
LSCQWNSDSLGV | 0.644 ± 0.1
LSCRGVTIRYCW | 0.683 ± 0.012
LSCSPVFFPLQP | 0.69 ± 0.0096
LSDLDSMVMIVP | 0.869 ± 0.16
LSDSLERVGGAF | 0.701 ± 0.048
LSFSFSPTSPPP | 0.739 ± 0.072
LSFWGLLSFWTP | 0.594 ± 0.02
LSGWVLVGNWGN | 0.647 ± 0.036
LSILSIHAHRAN | 0.665 ± 0.099
LSLAPPPLLHHL | 0.664 ± 0.02
LSLLKPLALCES | 0.559 ± 0.032
LSLLPFLRPPPI | 0.774 ± 0.043
LSLPPHSPPLHR | 0.702 ± 0.04
LSLPQPHPPLKS | 0.679 ± 0.029
LSMPRVHTRHRP | 0.708 ± 0.014

Sequence | protein stability index
LSPGLPRLLVKM | 0.669 ± 0.033
LSPLGLGPLLPP | 0.68 ± 0.048
LSPLRPPAPSVF | 0.646 ± 0.038
LSPPFLLTSPLT | 0.703 ± 0.046
LSPPLAPPPALP | 0.701 ± 0.08
LSPPPPPPVFSP | 0.727 ± 0.026
LSPPVLLAPPQH | 0.59 ± 0.0098
LSRPPSRPLPLP | 0.677 ± 0.04
LSRTAFRPSLTL | 0.746 ± 0.024
LSSADSVVSSVV | 0.696 ± 0.0093
LSTYVLRTGSFP | 0.677 ± 0.1
LSVAYSDIIVRC | 0.554 ± 0.0065
LSVSRLGFLLRG | 0.684 ± 0.037
LSVTGGRFSVSG | 0.7174 ± 0.0063
LSYSSLGLRFSY | 0.579 ± 0.02
LSYWPDARRPVL | 0.643 ± 0.046
LTFPILPVSTRV | 0.603 ± 0.025
LTGSGSGQGSRN | 0.688 ± 0.0097
LTHSTLCYASDL | 0.677 ± 0.018
LTKHQITKKAER | 0.73 ± 0.078
